Our source for the Mean 2, Δ Mean and High - B values is patent US20050152926A1.

In assay [1] the target is HLA A2 on RMA-S/A2 cells (human). Briefly: RMA-S/A2 HLA A2 stabilisation, BB7.2 FACS; 100 µM peptide; FIG 1(xxi).
The target is the same in assay [2]. Briefly: RMA-S/A2 HLA A2 stabilisation, BB7.2 FACS; 100 µM peptide; ΔMean minus highest HepB ΔMean.
For assay [3] the target is unchanged. Briefly: RMA-S/A2 HLA A2 stabilisation, BB7.2 FACS; 10 µM peptide; FIG 2(xi).
Assay [4] has the same target. Nature of the assay: RMA-S/A2 HLA A2 stabilisation, BB7.2 FACS; 10 µM peptide; ΔMean minus highest HepB ΔMean.
For assay [5] the target is unchanged. Nature of the assay: RMA-S/A2 HLA A2 stabilisation, BB7.2 FACS; 100 µM peptide; FIG 2(xix).
The target is the same in assay [6]. Briefly: RMA-S/A2 HLA A2 stabilisation, BB7.2 FACS; 100 µM peptide; FIG 1(xxii).
The target is the same in assay [7]. Briefly: RMA-S/A2 HLA A2 stabilisation, BB7.2 FACS; 100 µM peptide; FIG 3(xxii).
Assay [8] shares this target. Nature of the assay: RMA-S/A2 HLA A2 stabilisation, BB7.2 FACS; 100 µM peptide; FIG 1(xxv).
The target is the same in assay [9]. Nature of the assay: RMA-S/A2 HLA A2 stabilisation, BB7.2 FACS; 1 µM peptide; FIG 1(xii).
Assay [10] has the same target. Briefly: RMA-S/A2 HLA A2 stabilisation, BB7.2 FACS; 1 µM peptide; ΔMean minus highest HepB ΔMean.
For assay [11] the target is unchanged. Nature of the assay: RMA-S/A2 HLA A2 stabilisation, BB7.2 FACS; 100 µM peptide; FIG 3(xxi).
For assay [12] the target is unchanged. Nature of the assay: RMA-S/A2 HLA A2 stabilisation, BB7.2 FACS; 100 µM peptide; FIG 3(xxiii).
For assay [13] the target is unchanged. Nature of the assay: RMA-S/A2 HLA A2 stabilisation, BB7.2 FACS; 100 µM peptide; FIG 3(xix).
Assay [14] has the same target. Nature of the assay: RMA-S/A2 HLA A2 stabilisation, BB7.2 FACS; 100 µM peptide; FIG 3(xx).
The target is the same in assay [15]. Nature of the assay: RMA-S/A2 HLA A2 stabilisation, BB7.2 FACS; 100 µM peptide; FIG 3(xxv).
Assay [16] has the same target. Nature of the assay: RMA-S/A2 HLA A2 stabilisation, BB7.2 FACS; 100 µM peptide; FIG 2(x).
For assay [17] the target is unchanged. Briefly: RMA-S/A2 HLA A2 stabilisation, BB7.2 FACS; 100 µM peptide; FIG 1(xxvi).
Assay [18] has the same target. Briefly: RMA-S/A2 HLA A2 stabilisation, BB7.2 FACS; 100 µM peptide; FIG 3(xxiv).

In assay [1], YLTSYSPYV (modifications not checked) [CH15] had a Mean 2 of 557 and a Δ Mean of 322. This molecule gave a High - B in [2] of 76.

In assay [3], WLFDLRFSV (modifications not checked) [CH22] came in with a Mean 2 of 390 and a Δ Mean of 227. The molecule also returned a High - B in assay [4] of 73.

As to KLLKDHFDL (modifications not checked) [CH34], in assay [5], the Mean 2 was 390 and the Δ Mean came out at 235. Moreover, the High - B in [2] was 81.

For VQLAYVFDV (modifications not checked) [CH16], in assay [6], the Mean 2 was found to be 433 and the Δ Mean came out at 232. In [2], this molecule gave a High - B of 0.

With NLWSHYTDL (modifications not checked) [CH53], in assay [7], the Mean 2 amounted to 350 and the Δ Mean was 209. In assay [2], this molecule had a High - B of 48.

Turning to LLLTLGYAV (modifications not checked) [CH19], in assay [8], the Mean 2 was 436 and the Δ Mean turned out to be 240. Further, in assay [2], the High - B turned out to be 0.

In assay [9], VLNLFFSAL (modifications not checked) [CH3] came in with a Mean 2 of 419 and a Δ Mean of 224. This molecule also displayed a High - B in assay [10] of 0.

In assay [11], SLLEEHPVV (modifications not checked) [CH52] gave a Mean 2 of 396 and a Δ Mean of 249. Moreover, in [2], the High - B is 89.

With ALWKENQAL (modifications not checked) [CH54], the Δ Mean in assay [12] was determined as 251. In [2], this molecule displayed a High - B of 91.

For SLCAQSSYV (modifications not checked) [CH50], in [13], the Mean 2 is 381 and the Δ Mean was determined as 251. For the same molecule, the High - B in assay [2] came to 91.

On to NLSRQAFFA (modifications not checked) [CH51], for which, in assay [14], the Mean 2 turned out to be 311 and the Δ Mean was found to be 179. The molecule further showed a High - B in [2] of 19.

In assay [15], NLAGGILSV (modifications not checked) [CH56] had a Mean 2 of 383 and a Δ Mean of 240. In assay [2], the High - B worked out at 80.

In the case of TLWGSFVDV (modifications not checked) [CH21], in assay [16], the Mean 2 is 440 and the Δ Mean came out at 275. The molecule further yielded a High - B in assay [2] of 121.

For the molecule ALMLLNNYV (modifications not checked) [CH20], in assay [17], the Mean 2 amounted to 578 and the Δ Mean is 384. In [2], this molecule registered a High - B of 138.

In the case of ALWGHNVLL (modifications not checked) [CH55], in assay [18], the Mean 2 came to 411 and the Δ Mean came out at 258. The molecule further had a High - B in [2] of 98.
